# Reference: publication PMC4014126 (2014)
# Biological target: NF-κB activator 1 (Act1) (UniProt Q8N7N6)
# Test: co-immunoprecipitation (anti-Myc IP, Western blot, ImageJ densitometry)
# Settings: IL-17RA-deficient MEFs reconstituted by retroviral infection; treated with IL-17 for 10 min; parent: 100
# Myc-tagged mouse IL-17RA, sequence (Q60943 32-864, stated change not applied): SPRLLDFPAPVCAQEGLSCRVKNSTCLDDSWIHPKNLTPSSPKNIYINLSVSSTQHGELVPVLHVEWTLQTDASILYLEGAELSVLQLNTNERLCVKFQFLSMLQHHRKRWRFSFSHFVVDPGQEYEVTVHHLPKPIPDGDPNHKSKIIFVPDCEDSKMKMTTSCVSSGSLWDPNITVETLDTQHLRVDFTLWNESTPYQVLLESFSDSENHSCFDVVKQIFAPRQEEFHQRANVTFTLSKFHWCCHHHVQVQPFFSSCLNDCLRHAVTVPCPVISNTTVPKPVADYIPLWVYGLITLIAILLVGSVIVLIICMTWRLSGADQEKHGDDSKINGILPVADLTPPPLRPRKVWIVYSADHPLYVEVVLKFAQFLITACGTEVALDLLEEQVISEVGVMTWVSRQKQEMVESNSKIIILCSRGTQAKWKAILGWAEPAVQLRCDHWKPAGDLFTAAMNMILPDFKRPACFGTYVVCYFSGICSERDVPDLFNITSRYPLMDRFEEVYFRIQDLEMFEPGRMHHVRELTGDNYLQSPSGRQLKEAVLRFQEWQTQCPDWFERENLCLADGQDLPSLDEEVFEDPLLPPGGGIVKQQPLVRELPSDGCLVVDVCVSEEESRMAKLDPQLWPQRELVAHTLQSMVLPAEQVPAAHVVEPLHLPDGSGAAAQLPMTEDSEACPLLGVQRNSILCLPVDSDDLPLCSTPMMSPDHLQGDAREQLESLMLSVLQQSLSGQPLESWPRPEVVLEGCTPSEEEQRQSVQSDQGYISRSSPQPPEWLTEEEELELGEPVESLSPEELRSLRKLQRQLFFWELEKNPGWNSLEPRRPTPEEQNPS
# NF-κB activator 1 (Act1), sequence (Q8N7N6 whole entry): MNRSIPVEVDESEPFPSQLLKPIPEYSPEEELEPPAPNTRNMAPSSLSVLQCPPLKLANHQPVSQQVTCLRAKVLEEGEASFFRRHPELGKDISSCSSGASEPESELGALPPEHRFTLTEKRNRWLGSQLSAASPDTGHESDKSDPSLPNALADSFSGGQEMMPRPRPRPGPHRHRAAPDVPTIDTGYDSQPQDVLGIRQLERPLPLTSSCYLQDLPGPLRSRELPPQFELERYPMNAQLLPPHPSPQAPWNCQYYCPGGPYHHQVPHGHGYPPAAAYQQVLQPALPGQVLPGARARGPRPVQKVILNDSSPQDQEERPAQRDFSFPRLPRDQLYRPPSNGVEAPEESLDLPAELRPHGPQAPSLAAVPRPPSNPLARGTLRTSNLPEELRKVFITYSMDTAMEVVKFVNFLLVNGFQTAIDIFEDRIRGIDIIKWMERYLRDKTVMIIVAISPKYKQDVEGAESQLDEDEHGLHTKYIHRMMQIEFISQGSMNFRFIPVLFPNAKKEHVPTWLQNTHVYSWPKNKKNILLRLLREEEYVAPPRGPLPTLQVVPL
substance,measurement,value
Myc-tagged mouse IL-17RA (from UniProt Q60943) T483A; N488A; M489A,percent of parent,31
